B1: Azoarcus group I ribozyme (parent)
chain: GUGCCUUGCGCCGGGAAACCACGCAAGGGAUGGUGUCAAAUUCGGCGAAACCUAAGCGCCCGCCCGGGCGUAUGGCAACGCCGAGCCAAGCUUCGGCGCCUGCGCCGAUGAAGGUGUAGAGACUAGACGGCACCCACCUAAGGCAAACGCUAUGGUGAAGGCAUAGUCCAGGGAGUGGCGAAAGUCACACAAACCGG

Variants of: B1
Experiment: reverse-splicing fitness (ratio to wild type); higher = more active; in vitro selection; Mg2+ level not given
Procedure, shortened: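 An in vitro group I ribozyme library with randomized positions was T7-transcribed and gel-purified. In triplicate, 10 pmol RNA in EPPS pH 7.5 was reacted with 50 pmoles of a 30-nt RNA substrate for 1 h at 37 °C across several added MgCl2 levels (1–48 mM), then stopped with EDTA. Products were reverse transcribed from a substrate-complementary primer, PCR-amplified and sequenced (HiSeq 4000). Fitness is a variant's read proportion after selection over that before, normalised to wild type.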
C82A A111G A120C A145U C169U showed a reverse-splicing fitness of 0.0135. Work on C82A A111G A120C A145U C169A yielded a reverse-splicing fitness of 0.00859. Work on C82A A111G A120C A145U C169G yielded a reverse-splicing fitness of 0.00967. In the case of C82A A111G A120G A145C C150U C169G U176G, the reverse-splicing fitness is reported as 0.00597. C82A A111G A120G A145C C150U C169G U176A gave a reverse-splicing fitness of 0.0242. For C82A A111G A120G A145C C150U C169G U176C, the reverse-splicing fitness was 0.0123. C82A A111G A120G C150U C169A U176C showed a reverse-splicing fitness of 0.0173. Work on C82A A111G A120G C150U C169A U176G yielded a reverse-splicing fitness of 0.00549. In the case of C82A A111G A120G C150U C169A U176A, the reverse-splicing fitness is reported as 0.0153. Work on C82A A111G A120C A145U C169U U176G yielded a reverse-splicing fitness of 0.00505. C82A A111G A120C A145U C169U U176C gave a reverse-splicing fitness of 0.0131. Work on C82A A111G A120C A145U C169U U176A yielded a reverse-splicing fitness of 0.0152. For C82A A111G A120C C150G C169U, the reverse-splicing fitness was 0.00991. Variant C82A A111G A120C C150G C169G has a reverse-splicing fitness of 0.00727. Variant C82A A111G A120C C150G C169A has a reverse-splicing fitness of 0.00992. C82A A111G A120G A145U C150A U176A gave a reverse-splicing fitness of 0.0117. In the case of C82A A111G A120G A145U C150A U176C, the reverse-splicing fitness is reported as 0.0154. In the case of C82A A111G A120G A145U C150A U176G, the reverse-splicing fitness is reported as 0.00563. Work on C82A A111G A120G A145C C150A C169U U176G yielded a reverse-splicing fitness of 0.00484. Variant C82A A111G A120G A145C C150A C169U U176A has a reverse-splicing fitness of 0.0207. In the case of C82A A111G A120G A145C C150A C169U U176C, the reverse-splicing fitness is reported as 0.0117. C82A A111G A120C C150A C169G U176A gave a reverse-splicing fitness of 0.0219. Work on C82A A111G A120C C150A C169G U176G yielded a reverse-splicing fitness of 0.00675. With C82A A111G A120C C150A C169G U176C the reverse-splicing fitness was 0.0256. Variant C82A A111G A120G A145U C150G U176C has a reverse-splicing fitness of 0.00837. Variant C82A A111G A120G A145U C150G U176G has a reverse-splicing fitness of 0.00378. Work on C82A A111G A120G A145U C150G U176A yielded a reverse-splicing fitness of 0.00605. For C82A A111G A120C C150A U176A, the reverse-splicing fitness was 0.0133. Work on C82A A111G A120C C150A U176C yielded a reverse-splicing fitness of 0.0223. C82A A111G A120C C150A U176G gave a reverse-splicing fitness of 0.0115. In the case of C82A A111G A120G A145U C169U, the reverse-splicing fitness is reported as 0.00927. In the case of C82A A111G A120G A145U C169A, the reverse-splicing fitness is reported as 0.00824. C82A A111G A120G A145U C169G gave a reverse-splicing fitness of 0.0112. C82A A111G A120G C150U C169U U176G gave a reverse-splicing fitness of 0.00738. Work on C82A A111G A120G C150U C169U U176C yielded a reverse-splicing fitness of 0.0179. For C82A A111G A120G C150U C169U U176A, the reverse-splicing fitness was 0.023. In the case of C82A A111G A120C C150U C169G U176G, the reverse-splicing fitness is reported as 0.00643. C82A A111G A120C C150U C169G U176A gave a reverse-splicing fitness of 0.0173. Work on C82A A111G A120C C150U C169G U176C yielded a reverse-splicing fitness of 0.0203. For C82A A111G A120G C169A U176G, the reverse-splicing fitness was 0.00477. With C82A A111G A120G C169A U176A the reverse-splicing fitness was 0.0178. With C82A A111G A120G C169A U176C the reverse-splicing fitness was 0.0213. Variant C82A A111G A120G C169G U176A has a reverse-splicing fitness of 0.0226. C82A A111G A120G C169G U176G gave a reverse-splicing fitness of 0.00458. Work on C82A A111G A120G C169G U176C yielded a reverse-splicing fitness of 0.0229. With C82A A111G A120G A145G C150A C169U the reverse-splicing fitness was 0.00938. C82A A111G A120G A145G C150A C169G showed a reverse-splicing fitness of 0.00854. For C82A A111G A120G A145G C150A C169A, the reverse-splicing fitness was 0.0103. Work on C82A A111G A120C C150U C169A U176A yielded a reverse-splicing fitness of 0.0187. For C82A A111G A120C C150U C169A U176C, the reverse-splicing fitness was 0.0154. With C82A A111G A120C C150U C169A U176G the reverse-splicing fitness was 0.00635. With C82A A111G A120G A145C C150A C169G the reverse-splicing fitness was 0.00922. For C82A A111G A120G A145C C150A C169A, the reverse-splicing fitness was 0.00942. Variant C82A A111G A120G A145C C150A C169U has a reverse-splicing fitness of 0.00881. C82A A111G A120C C150U C169A showed a reverse-splicing fitness of 0.00986. In the case of C82A A111G A120C C150U C169U, the reverse-splicing fitness is reported as 0.0116. With C82A A111G A120C C150U C169G the reverse-splicing fitness was 0.00852. With C82A A111G A120G the reverse-splicing fitness was 0.0164. C82A A111G A120G A145C C169A U176G gave a reverse-splicing fitness of 0.00385. For C82A A111G A120G A145C C169A U176A, the reverse-splicing fitness was 0.0117. C82A A111G A120G A145C C169A U176C showed a reverse-splicing fitness of 0.00752. C82A A111G A120G A145G C150U C169A U176A gave a reverse-splicing fitness of 0.016. Work on C82A A111G A120G A145G C150U C169A U176C yielded a reverse-splicing fitness of 0.0174. C82A A111G A120G A145G C150U C169A U176G gave a reverse-splicing fitness of 0.0063. In the case of C82A A111G A120G A145C C150A U176G, the reverse-splicing fitness is reported as 0.00509. With C82A A111G A120G A145C C150A U176C the reverse-splicing fitness was 0.00922. In the case of C82A A111G A120G A145C C150A U176A, the reverse-splicing fitness is reported as 0.0107. For C82A A111G A120G A145C C150U C169U U176G, the reverse-splicing fitness was 0.00537. Variant C82A A111G A120G A145C C150U C169U U176A has a reverse-splicing fitness of 0.0203. C82A A111G A120G A145C C150U C169U U176C showed a reverse-splicing fitness of 0.0113. C82A A111G A120G A145U C150G C169A gave a reverse-splicing fitness of 0.00989. C82A A111G A120G A145U C150G C169U gave a reverse-splicing fitness of 0.00867. In the case of C82A A111G A120G A145U C150G C169G, the reverse-splicing fitness is reported as 0.00677. With C82A A111G A120G A145C U176A the reverse-splicing fitness was 0.0113. In the case of C82A A111G A120G A145C U176C, the reverse-splicing fitness is reported as 0.0105. For C82A A111G A120G A145C U176G, the reverse-splicing fitness was 0.00516. Work on C82A A111G A120C C150G yielded a reverse-splicing fitness of 0.0106. With C82A A111G A120C C150A the reverse-splicing fitness was 0.0162. C82A A111G A120C C150U gave a reverse-splicing fitness of 0.0279. With C82A A111G A120G A145C C150G C169G U176C the reverse-splicing fitness was 0.00788. With C82A A111G A120G A145C C150G C169G U176A the reverse-splicing fitness was 0.00955. Variant C82A A111G A120G A145C C150G C169G U176G has a reverse-splicing fitness of 0.0049. In the case of C82A A111G A120G A145G C169G, the reverse-splicing fitness is reported as 0.0122.

From the RNAGym collection of RNA variant scans (doi:10.1093/molbev/msab373)
